Measurements as given in PMC11840039.
Read-outs that look alike come from different tables or passages of the source.

Legend:
Assay in all cases: cryo-EM structure
[1] = biological target: Human Slo1 (hSlo1), BK channel α subunit, residues 1-1056 (human)
[2] = biological target: Human Slo1 (hSlo1), BK channel α subunit, residues 1-1056 (human); remark: listed apart in the source
[3] = biological target: Human Slo1 (hSlo1), BK channel α subunit, residues 1-1056 (human); remark: listed apart in the source
[4] = biological target: Human Slo1 (hSlo1), BK channel α subunit, residues 1-1056 (human); remark: listed apart in the source

Measured: stoichiometry N

Human Slo1 (hSlo1), BK channel α subunit, residues 1-1056 (natural protein)
4: all assays above
